Measurements from article PMC1356529.

What was measured:
NCp9 (HIV-1) [1] = biological target: NCp9 (HIV-1) (UniProt P12493); test: single-molecule DNA stretching
NCp7 (HIV-1) [2] = biological target: NCp7 (HIV-1) (UniProt P12493); test: single-molecule DNA stretching
NCp15 (HIV-1) [3] = test: single-molecule DNA stretching
NCp9 (HIV-1) [4] = biological target: NCp9 (HIV-1) (UniProt P12493); test: Trp fluorescence quenching titration
NCp7 (HIV-1) [5] = biological target: NCp7 (HIV-1) (UniProt P12493); test: Trp fluorescence quenching titration
NCp15 (HIV-1) [6] = test: Trp fluorescence quenching titration
NCp9 (HIV-1) [7] = biological target: NCp9 (HIV-1) (UniProt P12493); test: ethenoA fluorescence enhancement titration; conditions: 1,N6-ethenoadenosine homopolymer (RNA)
NCp7 (HIV-1) [8] = biological target: NCp7 (HIV-1) (UniProt P12493); test: ethenoA fluorescence enhancement titration; conditions: 1,N6-ethenoadenosine homopolymer (RNA)
NCp15 (HIV-1) [9] = test: ethenoA fluorescence enhancement titration; conditions: 1,N6-ethenoadenosine homopolymer (RNA)

Substance: lambda-DNA
- Ka (NCp9 (HIV-1) [1]): 1.4e+08 M⁻¹
- Ka (NCp7 (HIV-1) [2]): 1.22e+08 M⁻¹
- Ka (NCp15 (HIV-1) [3]): 1.04e+08 M⁻¹

Substance: poly(dT)
- Ka (NCp9 (HIV-1) [4]): 1.1e+08 M⁻¹
- Ka (NCp7 (HIV-1) [5]): 9.3e+07 M⁻¹
- Ka (NCp15 (HIV-1) [6]): 1.4e+09 M⁻¹

Substance: poly(etheno-A)
- Ka (NCp9 (HIV-1) [7]): 3.8e+09 M⁻¹
- Ka (NCp7 (HIV-1) [8]): 1.4e+09 M⁻¹
- Ka (NCp15 (HIV-1) [9]): 1.7e+09 M⁻¹

Substance: 3'LTR/U5 single strand
- Ka (NCp9 (HIV-1) [4]): 6.2e+07 M⁻¹
- Ka (NCp7 (HIV-1) [5]): 4.3e+07 M⁻¹

Substance: 5'LTR/U3 single strand
- Ka (NCp9 (HIV-1) [4]): 3.9e+08 M⁻¹
- Ka (NCp7 (HIV-1) [5]): 2.2e+08 M⁻¹
